Measurements: US20040018971A1 (published 2004)

Assays:
[1] = target: T1, HLA-A*6801 (purified HLA class I molecule) (human); experiment: competition vs 125I standard peptide, purified HLA
T1 construct: Purified MHC molecule

[2] = target: T2, HLA-A*3301 (purified HLA class I molecule) (human); experiment: competition vs 125I standard peptide, purified HLA
T2 construct: Purified MHC molecule

[3] = target: HLA-A*0301 (purified HLA class I molecule) (human); experiment: competition vs 125I standard peptide, purified HLA
[4] = target: T3, HLA-A*3101 (purified HLA class I molecule) (human); experiment: competition vs 125I standard peptide, purified HLA
T3 construct: Purified MHC molecule

[5] = target: T4, HLA-A*1101 (purified HLA class I molecule) (human); experiment: competition vs 125I standard peptide, purified HLA
T4 construct: Purified MHC molecule

HLA-A*1101 = HLA-A*1101 (human); experiment: inhibition of 125I-labelled standard peptide binding to purified HLA, gel filtration
HLA-A*3101 = HLA-A*3101 (human); experiment: as above
HLA-A*3301 = HLA-A*3301 (human); experiment: as above
HLA-A*6801 = HLA-A*6801 (human); experiment: as above
HLA-A*0301 = HLA-A*0301 (human); experiment: as above
HLA-A*0203 = HLA-A*0203 (human); experiment: competition with 125I probe peptide for purified HLA
HLA-A*0206 = HLA-A*0206 (human); experiment: as above
HLA-A*0202 = HLA-A*0202 (human); experiment: as above
HLA-A*6802 = HLA-A*6802 (human); experiment: as above
HLA-A*0101 [6] = target: T5, HLA-A*0101 (human); experiment: competition with 125I-labelled probe peptide for purified HLA-A*0101, gel filtration
T5 construct: also called HLA-A1

[7] = target: T6, HLA-A*0301 (purified HLA class I molecule) (human); experiment: inhibition of 125I probe peptide binding to purified HLA; ratio to standard peptide; minus sign not explained
T6 construct: also called A3

[8] = target: HLA-A*1101 (purified HLA class I molecule) (human); experiment: as above
HLA-DR1 (DRB1*0101) = HLA-DR1 (DRB1*0101) (human); experiment: competition with 125I-labelled probe peptide on purified HLA-DR, gel filtration; IC50 of standard peptide / IC50 of test peptide
HLA-DR4w4 (DRB1*0401) = target: T7, HLA-DR4w4 (DRB1*0401) (human); experiment: as above
T7 construct: Purified HLA class II molecule

HLA-DR7 (DRB1*0701) = target: T8, HLA-DR7 (DRB1*0701) (human); experiment: as above
T8 construct: Purified HLA class II molecule

HLA-A*0201 = target: T9, HLA-A*0201 (human); experiment: competitive inhibition of 125I-labeled probe peptide binding to purified HLA-A*0201
T9 construct: also called HLA-A2.1; A2.1

[9] = target: HLA-DR1 (DRB1*0101), purified HLA class II molecule (human); experiment: competition with 125I-labelled probe peptide, purified HLA-DR
[10] = target: T6, HLA-A*0301 (purified HLA class I …); experiment: inhibition of 125I probe peptide binding to purified HLA; ratio to standard peptide
HLA-A*0101 [11] = target: T10, HLA-A*0101 (human); experiment: competition with a 125I-labelled probe peptide for purified HLA-A*0101, gel filtration; ratio against the A*0101 standard peptide 944.02 [..] (25 nM)
T10 construct: Purified HLA molecule, 5 to 500 nM in the assay; also called HLA-A1

Binder: KVLRENTSPK [HER2/neu peptide, position 753, 10 amino acids]
- relative binding ratio [1]: 0.0008 ratio (IC50 standard/IC50 test)
- relative binding ratio [2]: 0.0012 ratio (IC50 standard/IC50 test)
- relative binding ratio [3]: 0.38 ratio (IC50 standard/IC50 test)
- relative binding ratio [4]: 0.0068 ratio (IC50 standard/IC50 test)
- relative binding ratio [5]: 0.22 ratio (IC50 standard/IC50 test)

Binder: LLNWCMQIAK [HER2/neu peptide, position 822, 10 amino acids]
- relative binding ratio [1]: 0.0086 ratio (IC50 standard/IC50 test)
- relative binding ratio [2]: 0.0088 ratio (IC50 standard/IC50 test)
- relative binding ratio [3]: 0.14 ratio (IC50 standard/IC50 test)
- relative binding ratio [4]: 0.01 ratio (IC50 standard/IC50 test)
- relative binding ratio [5]: 0.14 ratio (IC50 standard/IC50 test)

Binder: HTVPWDQLFR (also called Her2/neu.478) [HER2/neu peptide, position 478, 10 amino acids]
- relative binding ratio [1]: 2 ratio (IC50 standard/IC50 test)
- relative binding ratio [2]: 0.33 ratio (IC50 standard/IC50 test)
- relative binding ratio [3]: 0.0035 ratio (IC50 standard/IC50 test)
- relative binding ratio [4]: 0.96 ratio (IC50 standard/IC50 test)
- relative binding ratio [5]: 0.072 ratio (IC50 standard/IC50 test)

Binder: VLVKSPNHVK (Synthetic A3 supermotif peptide) [HER2/neu peptide, position 851, 10 amino acids]
- relative binding ratio (HLA-A*1101): 0.0072 ratio (IC50 of standard peptide / IC50 of test peptide)
- relative binding ratio (HLA-A*3101): 0.0052 ratio (IC50 of standard peptide / IC50 of test peptide)
- relative binding ratio (HLA-A*3301): 0.0032 ratio (IC50 of standard peptide / IC50 of test peptide)
- relative binding ratio (HLA-A*6801): 0.0005 ratio (IC50 of standard peptide / IC50 of test peptide)
- relative binding ratio (HLA-A*0301): 0.082 ratio (IC50 of standard peptide / IC50 of test peptide)

Binder: QLMPYGCLL [Her2/neu.799 QLMPYGCLL]
- IC50 (HLA-A*0203): 114 nM
- IC50 (HLA-A*0206): 712 nM
- IC50 (HLA-A*0202): 977 nM

Binder: QLFEDNYALA [Her2/neu.106 (10-mer) QLFEDNYALA]
- IC50 (HLA-A*0203): 9.1 nM
- IC50 (HLA-A*6802): 74 nM
- IC50 (HLA-A*0206): 218 nM
- IC50 (HLA-A*0202): 662 nM

Binder: PTHDPSPLQRY [HER2/neu peptide, position 1102, 11 amino acids]
- relative binding ratio (HLA-A*0101 [6]): 0.016 ratio (IC50 of standard peptide / IC50 of test peptide)

Binder: CSKPCARVCY [HER2/neu peptide, position 334, 10 amino acids]
- relative binding ratio (HLA-A*0101 [6]): 0.0016 ratio (IC50 of standard peptide / IC50 of test peptide)

Binder: CSPMCKGSR (also called Her2/neu.195 (9-mer)) [HER2/neu peptide, position 195, 9 amino acids]
- relative binding ratio [7]: -0.0008 ratio (IC50 standard / IC50 test)
- relative binding ratio [8]: -0.0001 ratio (IC50 standard / IC50 test)

Binder: ETELVEPLTPSGAMP (also called Her2/neu.693) [HER2/neu peptide ETELVEPLTPSGAMP (position 693)]
- relative binding ratio (HLA-DR1 (DRB1*0101)): 0.006 ratio
- relative binding ratio (HLA-DR4w4 (DRB1*0401)): -0.0025 ratio
- relative binding ratio (HLA-DR7 (DRB1*0701)): -0.0013 ratio

Binder: ALCRWGLLLA [Her2/neu.5]
- IC50 (HLA-A*0201): ≤ 500 nM

Binder: QLMPYGCLL [Her2/neu.799]
- IC50 (HLA-A*0201): ≤ 500 nM

Binder: QPDVRPQPPSPREGP (also called Her2/neu.1142) [HER2/neu DR supermotif exemplary 15-mer QPDVRPQPPSPREGP (position 1142)]
- relative binding ratio [9]: 0.0007 ratio (IC50 standard / IC50 test)

Binder: DMGDLVDAEEY [HER2/neu peptide, position 1013, 11 amino acids]
- relative binding ratio (HLA-A*0101 [6]): 0.0027 ratio (IC50 of standard peptide / IC50 of test peptide)

Binder: CAGGCARCK (also called Her2/neu.220 (9-mer)) [HER2/neu peptide, position 220, 9 amino acids]
- relative binding ratio [7]: -0.0002 ratio (IC50 standard / IC50 test)
- relative binding ratio [8]: -0.0002 ratio (IC50 standard / IC50 test)

Binder: ESMPNPEGR [HER2/neu peptide, position 280, 9 amino acids]
- relative binding ratio [8]: -0.0002 ratio (IC50 standard / IC50 test)
- relative binding ratio [10]: 0.0003 ratio (IC50 standard / IC50 test)

Binder: YMIMVKCWM [Her2/neu.952 (9-mer) YMIMVKCWM]
- IC50 (HLA-A*6802): 1000 nM

Binder: TLEEITGY (also called Her2/neu.402 (8-mer)) [HER2/neu peptide, position 402, 8 amino acids]
- relative binding ratio (IC50 of standard peptide / IC50 of test peptide) (HLA-A*0101 [11]): -0.0021 ratio

Binder: ETHLDMLRHLY (also called Her2/neu.40) [HER2/neu peptide, position 40, 11 amino acids]
- relative binding ratio (HLA-A*0101 [6]): 0.28 ratio (IC50 of standard peptide / IC50 of test peptide)

Binder: YMIMVKCWM [Her2/neu.952]
- IC50 (HLA-A*0201): ≤ 500 nM
